Measured values published in IntAct's records for PubMed 31515488.

B1: Cyclin-dependent kinase 4 inhibitor C (Homo sapiens), P42773 (parent)
chain: MAEPWGNELASAAARGDLEQLTSLLQNNVNVNAQNGFGRTALQVMKLGNPEIARRLLLRGANPDLKDRTGFAVIHDAARAGFLDTLQTLLEFQADVNIEDNEGNLPLHLAAKEGHLRVVEFLVKHTASNVGHRNHKGDTACDLARLYGRNEVVSLMQANGAGGATNLQ
B2: Protein boule-like (Homo sapiens), Q8N9W6 (parent)
chain: MQTDSLSPSPNPVSPVPLNNPTSAPRYGTVIPNRIFVGGIDFKTNESDLRKFFSQYGSVKEVKIVNDRAGVSKGYGFVTFETQEDAQKILQEAEKLNYKDKKLNIGPAIRKQQVGIPRSSIMPAAGTMYLTTSTGYPYTYHNGVAYFHTPEVTSVPPPWPSRSVCSSPVMVAQPIYQQPAYHYQATTQYLPGQWQWSVPQPSASSAPFLYLQPSEVIYQPVEIAQDGGCVPPPLSLMETSVPEPYSDHGVQATYHQVYAPSAITMPAPVMQPEPIKTVWSIHY
partner: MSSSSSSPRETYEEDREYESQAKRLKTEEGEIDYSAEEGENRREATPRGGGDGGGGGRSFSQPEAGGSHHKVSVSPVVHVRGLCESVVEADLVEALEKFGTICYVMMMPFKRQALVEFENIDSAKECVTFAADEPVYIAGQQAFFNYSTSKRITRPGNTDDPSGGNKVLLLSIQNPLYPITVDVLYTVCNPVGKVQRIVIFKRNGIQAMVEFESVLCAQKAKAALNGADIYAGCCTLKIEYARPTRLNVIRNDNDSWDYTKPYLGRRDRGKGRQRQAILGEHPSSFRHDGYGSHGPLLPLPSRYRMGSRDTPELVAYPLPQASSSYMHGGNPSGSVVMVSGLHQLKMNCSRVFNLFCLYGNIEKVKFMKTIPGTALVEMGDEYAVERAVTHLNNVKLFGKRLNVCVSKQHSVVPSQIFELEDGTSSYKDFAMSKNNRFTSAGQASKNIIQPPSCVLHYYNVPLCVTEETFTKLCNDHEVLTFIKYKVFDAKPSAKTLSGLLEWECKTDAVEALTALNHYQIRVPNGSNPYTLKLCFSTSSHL
B3: Serine/threonine-protein kinase PAK 6 (Homo sapiens), Q9NQU5 (parent)
chain: MFRKKKKKRPEISAPQNFQHRVHTSFDPKEGKFVGLPPQWQNILDTLRRPKPVVDPSRITRVQLQPMKTVVRGSAMPVDGYISGLLNDIQKLSVISSNTLRGRSPTSRRRAQSLGLLGDEHWATDPDMYLQSPQSERTDPHGLYLSCNGGTPAGHKQMPWPEPQSPRVLPNGLAAKAQSLGPAEFQGASQRCLQLGACLQSSPPGASPPTGTNRHGMKAAKHGSEEARPQSCLVGSATGRPGGEGSPSPKTRESSLKRRLFRSMFLSTAATAPPSSSKPGPPPQSKPNSSFRPPQKDNPPSLVAKAQSLPSDQPVGTFSPLTTSDTSSPQKSLRTAPATGQLPGRSSPAGSPRTWHAQISTSNLYLPQDPTVAKGALAGEDTGVVTHEQFKAALRMVVDQGDPRLLLDSYVKIGEGSTGIVCLAREKHSGRQVAVKMMDLRKQQRRELLFNEVVIMRDYQHFNVVEMYKSYLVGEELWVLMEFLQGGALTDIVSQVRLNEEQIATVCEAVLQALAYLHAQGVIHRDIKSDSILLTLDGRVKLSDFGFCAQISKDVPKRKSLVGTPYWMAPEVISRSLYATEVDIWSLGIMVIEMVDGEPPYFSDSPVQAMKRLRDSPPPKLKNSHKVSPVLRDFLERMLVRDPQERATAQELLDHPFLLQTGLPECLVPLIQLYRKQTSTC

Variants of: B1
Conditions: with cdk6_human CDK6, Q00534
Chain of cdk6_human CDK6, Q00534 (Q00534 whole entry): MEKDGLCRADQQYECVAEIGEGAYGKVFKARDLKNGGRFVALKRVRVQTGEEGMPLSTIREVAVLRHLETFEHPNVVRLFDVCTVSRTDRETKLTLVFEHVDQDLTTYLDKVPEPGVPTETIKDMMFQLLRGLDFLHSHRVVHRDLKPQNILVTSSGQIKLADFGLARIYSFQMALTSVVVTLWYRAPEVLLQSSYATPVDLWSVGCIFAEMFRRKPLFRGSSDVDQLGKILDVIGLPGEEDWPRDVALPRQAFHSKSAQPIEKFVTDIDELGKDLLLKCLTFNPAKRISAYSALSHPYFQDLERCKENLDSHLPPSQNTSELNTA

Variant | effect of a mutation on the interaction
V31L | with no effect

Variants of: B1
Conditions: with htf4_human TCF12, Q99081
Chain of htf4_human TCF12, Q99081 (Q99081 whole entry): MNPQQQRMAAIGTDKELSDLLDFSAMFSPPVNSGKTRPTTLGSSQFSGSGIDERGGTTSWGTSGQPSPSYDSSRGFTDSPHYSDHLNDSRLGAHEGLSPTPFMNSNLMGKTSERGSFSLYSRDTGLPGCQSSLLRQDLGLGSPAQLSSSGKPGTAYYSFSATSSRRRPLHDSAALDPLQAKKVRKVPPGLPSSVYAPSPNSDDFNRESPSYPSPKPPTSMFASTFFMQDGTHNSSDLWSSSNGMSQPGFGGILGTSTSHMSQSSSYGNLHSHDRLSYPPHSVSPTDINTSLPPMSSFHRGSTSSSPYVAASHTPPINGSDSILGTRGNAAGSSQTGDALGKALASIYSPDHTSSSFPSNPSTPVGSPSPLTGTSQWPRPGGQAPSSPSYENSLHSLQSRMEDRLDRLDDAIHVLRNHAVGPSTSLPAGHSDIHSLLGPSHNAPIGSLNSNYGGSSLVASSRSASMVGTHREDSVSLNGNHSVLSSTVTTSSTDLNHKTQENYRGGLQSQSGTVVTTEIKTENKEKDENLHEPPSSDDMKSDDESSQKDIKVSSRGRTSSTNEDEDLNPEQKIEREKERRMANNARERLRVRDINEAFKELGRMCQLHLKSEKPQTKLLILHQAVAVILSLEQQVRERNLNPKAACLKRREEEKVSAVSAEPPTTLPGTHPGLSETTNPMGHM

Variant | effect of a mutation on the interaction
V31L | disrupting interaction strength

Variants of: B1
Conditions: with cdk4_human CDK4, P11802

Variant | effect of a mutation on the interaction
V31L | with no effect

Variants of: B1
Conditions: with itf2_human TCF4, P15884
Chain of itf2_human TCF4, P15884 (P15884 whole entry): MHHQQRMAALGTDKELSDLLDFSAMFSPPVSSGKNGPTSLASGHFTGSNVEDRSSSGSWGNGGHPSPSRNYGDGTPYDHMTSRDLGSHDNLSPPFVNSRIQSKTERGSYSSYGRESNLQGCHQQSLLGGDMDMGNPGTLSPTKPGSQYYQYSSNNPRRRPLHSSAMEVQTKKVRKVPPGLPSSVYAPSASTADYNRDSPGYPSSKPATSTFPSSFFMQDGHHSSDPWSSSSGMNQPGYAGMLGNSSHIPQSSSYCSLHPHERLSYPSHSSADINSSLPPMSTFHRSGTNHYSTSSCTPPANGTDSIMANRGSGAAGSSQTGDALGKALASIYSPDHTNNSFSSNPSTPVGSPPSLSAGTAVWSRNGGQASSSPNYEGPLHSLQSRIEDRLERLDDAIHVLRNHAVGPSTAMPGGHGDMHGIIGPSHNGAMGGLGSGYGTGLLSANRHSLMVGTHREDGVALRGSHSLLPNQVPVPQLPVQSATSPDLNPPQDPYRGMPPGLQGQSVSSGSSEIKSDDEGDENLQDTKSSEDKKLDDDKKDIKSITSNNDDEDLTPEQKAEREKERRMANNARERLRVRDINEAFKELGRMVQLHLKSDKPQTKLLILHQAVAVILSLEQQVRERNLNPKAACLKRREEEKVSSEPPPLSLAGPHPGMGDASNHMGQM

Variant | effect of a mutation on the interaction
V31L | disrupting interaction strength

Variants of: B1
Conditions: with nagk_human NAGK

Variant | effect of a mutation on the interaction
V31L | disrupting interaction strength

Variants of: B1
Conditions: with sahh2_human AHCYL1, O43865
Chain of sahh2_human AHCYL1, O43865 (O43865 whole entry): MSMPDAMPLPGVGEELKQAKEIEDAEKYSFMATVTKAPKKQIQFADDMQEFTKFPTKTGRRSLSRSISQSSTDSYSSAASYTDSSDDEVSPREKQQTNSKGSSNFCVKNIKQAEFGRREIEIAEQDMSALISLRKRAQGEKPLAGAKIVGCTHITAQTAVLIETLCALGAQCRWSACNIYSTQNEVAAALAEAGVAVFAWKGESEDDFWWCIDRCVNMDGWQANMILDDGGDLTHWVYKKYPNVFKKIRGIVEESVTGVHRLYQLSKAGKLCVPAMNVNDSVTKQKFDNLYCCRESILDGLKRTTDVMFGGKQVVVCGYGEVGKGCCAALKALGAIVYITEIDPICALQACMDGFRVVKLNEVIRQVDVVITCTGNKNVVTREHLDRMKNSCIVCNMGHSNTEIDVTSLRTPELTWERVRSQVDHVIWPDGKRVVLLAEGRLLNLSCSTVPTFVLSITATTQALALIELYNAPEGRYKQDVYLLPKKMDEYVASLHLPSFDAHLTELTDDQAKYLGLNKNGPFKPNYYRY

Variant | effect of a mutation on the interaction
V31L | disrupting interaction strength

Variants of: B2
Conditions: with hnrll_human HNRNPLL

Variant | effect of a mutation on the interaction
M270I | with no effect
V78I | with no effect
S9Y | with no effect

Variants of: B3
Conditions: with rhoj_human RHOJ

Variant | effect of a mutation on the interaction
L514R | disrupting interaction strength
H215R | with no effect
V54M | with no effect
R103C | with no effect
